Ends that are not written are not given here.
These binders were tested against Ku70/Ku80ΔC heterodimer (human, UniProt P12956 1-609; P13010 1-590) (assay: FP).
Chain of Ku70/Ku80ΔC heterodimer (P12956 whole entry, stated change not applied, chain 1 of 2): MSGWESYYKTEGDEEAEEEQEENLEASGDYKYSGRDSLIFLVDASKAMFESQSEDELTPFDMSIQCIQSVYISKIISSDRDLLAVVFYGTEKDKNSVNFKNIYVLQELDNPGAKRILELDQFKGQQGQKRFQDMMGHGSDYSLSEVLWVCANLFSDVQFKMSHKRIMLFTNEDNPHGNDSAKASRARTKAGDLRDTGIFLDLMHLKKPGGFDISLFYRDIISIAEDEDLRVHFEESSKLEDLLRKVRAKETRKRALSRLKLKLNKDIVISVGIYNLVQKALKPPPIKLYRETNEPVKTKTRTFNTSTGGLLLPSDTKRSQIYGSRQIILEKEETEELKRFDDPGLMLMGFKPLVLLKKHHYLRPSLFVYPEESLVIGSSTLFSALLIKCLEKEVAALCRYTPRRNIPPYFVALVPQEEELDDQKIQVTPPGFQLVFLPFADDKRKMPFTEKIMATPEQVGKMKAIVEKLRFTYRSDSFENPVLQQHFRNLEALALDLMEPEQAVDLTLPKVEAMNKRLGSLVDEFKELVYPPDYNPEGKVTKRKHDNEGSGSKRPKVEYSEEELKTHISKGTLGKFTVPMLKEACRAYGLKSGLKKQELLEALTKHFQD
Chain of Ku70/Ku80ΔC heterodimer (P13010 1-590, stated change not applied, chain 2 of 2): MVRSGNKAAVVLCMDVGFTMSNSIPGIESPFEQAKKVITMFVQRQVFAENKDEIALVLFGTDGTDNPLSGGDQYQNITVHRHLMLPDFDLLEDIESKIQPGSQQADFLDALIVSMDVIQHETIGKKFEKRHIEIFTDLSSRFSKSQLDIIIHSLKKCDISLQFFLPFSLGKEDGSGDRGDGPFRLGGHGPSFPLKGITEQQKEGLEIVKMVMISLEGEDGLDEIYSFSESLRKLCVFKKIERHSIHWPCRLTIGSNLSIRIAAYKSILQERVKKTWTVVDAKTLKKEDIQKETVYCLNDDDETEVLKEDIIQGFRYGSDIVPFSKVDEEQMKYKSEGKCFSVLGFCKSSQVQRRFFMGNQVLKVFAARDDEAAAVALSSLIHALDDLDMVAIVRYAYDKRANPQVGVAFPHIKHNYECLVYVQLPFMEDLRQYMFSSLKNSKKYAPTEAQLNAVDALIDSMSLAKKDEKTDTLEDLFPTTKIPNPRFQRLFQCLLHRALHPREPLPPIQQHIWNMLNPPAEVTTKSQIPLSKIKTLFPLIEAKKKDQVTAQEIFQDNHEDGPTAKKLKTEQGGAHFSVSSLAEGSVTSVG

Fluorescein-GGYGSSAERKRRLPVWFAKG [fluorescein-labelled WRN-cA peptide (C-terminal KBM of WRN)] and Fluorescein-GGYGSSAERKRRLPVWFAKGSDTSKKLMDKTKRGGLFS [fluorescein-labelled WRN-cAX peptide (C-terminal KBM plus XLF-like motif of WRN)] are within 1.5-fold of each other in Kd: 790 nM for the first, 720 nM for the second.

Fluorescein-GGYGAQQRKCPEWMNVQN [fluorescein-labelled WRN-nA peptide (N-terminal KBM of WRN)] gave a Kd of 1170 nM.

Reference: PMC4831024 (2016)
